This note sets out measurements from patent publication US20230360747A1.

The assay deals with SARS-CoV-2 RBD (40592-VO8H, Sino Biological), Alexa Fluor 647 labelled (SARS-CoV-2) (UniProt P0DTC2).

On to “SARS-CoV-2 (2019-nCoV) spike antibody (40150-R007, Sino Biological)”, for which the Kd worked out at 9.6 nM.

Usually Kd stands for the free concentration of one partner at which half of the binding sites on the other are occupied at equilibrium, for simple one-to-one binding. Low values mean higher affinity, high ones lower affinity.
